The experiment deals with cerebral ischemia reperfusion model of middle cerebral artery obstruction (MCAO). The experiment in a line: Cerebral ischemia reperfusion model of middle cerebral artery obstruction (MCAO). It counts as in vivo. Particulars: SD rats, 3 μg/kg once via vena caudalis. From the text:
A cerebral ischemia reperfusion model of middle cerebral artery obstruction (MCAO) was established by thread embolizing the internal carotid artery of SD rats (purchased from Shanghai Sippr bk Laboratory Animal Co. LTD.) A positive control 1 group (urinary kallikrein, Guangdong Tianpu Biochemical Pharmaceutical Co., LTD.), a positive control 2 group (tPA, Shanghai Boehringer Ingelheim Pharmaceuticals Co., LTD), a model control group (PBS), a sham group, a kallikrein group (from Changzhou Qianhong Biochemical Pharmaceutical Co., LTD.), a conjugate 1 group, a conjugate 2 group, a conjugate 3 group, and a conjugate 4 group were arranged respectively. Administration by injection through vena caudalis was performed once at 3 μg/kg (calculated according to the protein amount) immediately after the cerebral ischemia reperfusion. Neurologic deficit symptoms were observed 24 h after the reperfusion, and the cerebral infarction area was determined. In the model group, an equal volume of PBS was injected through vena caudalis into the rat. In the sham group, only blood vessels were separated, no embolizing thread was inserted, and an equal volume of PBS was injected through vena caudalis into the rats. Neurologic deficit symptoms were evaluated employing an improved Bederson 5-point system method. Neurologic deficit symptoms of the rats after brain trauma were evaluated by a single-blind method, i.e., the animals were marked according to groups by designers of the experiment, and scores of the neurologic deficit symptoms were given by experimenters blind to the grouping situation. The cerebral infarction area was calculated employing the following method. Cerebrums of the SD rats were stained with TTC (2,3,5-triphenyltetrazolium chloride) and then the photographs were subjected to statistics using an image analysis software, and the percentage of cerebral infarction area was calculated according to the following formula: % cerebral infarction area=100×(total ischemic area/total area on the right side)

This note sets out measurements from US10052368B2, “Pegylated tissue kallikrein, and preparation method therefor and uses thereof” (ZONHON BIOPHARMA INSTITUTE INC., priority 2013, dated 2018).

B1: Positive control 2: tPA, Shanghai Boehringer Ingelheim Pharmaceuticals (protein, UniProt P00750 36-562, looked up)
Tissue-type plasminogen …: SYQVICRDEKTQMIYQQHQSWLRPVLRSNRVEYCWCNSGRAQCHSVPVKSCSEPRCFNGGTCQQALYFSDFVCQCPEGFAGKCCEIDTRATCYEDQGISYRGTWSTAESGAECTNWNSSALAQKPYSGRRPDAIRLGLGNHNYCRNPDRDSKPWCYVFKAGKYSSEFCSTPACSEGNSDCYFGNGSAYRGTHSLTESGASCLPWNSMILIGKVYTAQNPSAQALGLGKHNYCRNPDGDAKPWCHVLKNRRLTWEYCDVPSCSTCGLRQYSQPQFRIKGGLFADIASHPWQAAIFAKHRRSPGERFLCGGILISSCWILSAAHCFQERFPPHHLTVILGRTYRVVPGEEEQKFEVEKYIVHKEFDDDTYDNDIALLQLKSDSSRCAQESSVVRTVCLPPADLQLPDWTECELSGYGKHEALSPFYSERLKEAHVRLYPSSRCTSQHLLNRTVTDNMLCAGDTRSGGPQANLHDACQGDSGGPLVCLNDGRMTLVGIISWGLGCGQKDVPGVYTKVTNYLDWIRDNMRP
On to B1, for which the “amelioration of cerebral infarction status of the model animals (in words)” value was “no apparent amelioration”. Besides, where the note is “24 h after reperfusion, TTC staining”, the “Cerebral infarction area (%)” value worked out at 31.55 ± 2.71%. In addition, the “Score of neurologic deficit symptom” value (24 h after reperfusion, improved Bederson 5-point system) was 3.00 ± 0.20.
